From the supplement of paper PMC10567573

B1: DLC1 (parent)
chain: KRSWEEHVTHWMGQPFNSDDRNTA

Variants of: B1
Assay: protein stability index of a GFP-peptide fusion (GPS, HEK-293T) (PSI 1-6); higher = more stable
Settings: c terminus: a fixed tail appended
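Further: lentivirally expressed fusions sorted by FACS into six bins by GFP to DsRed ratio, PSI derived from sequencing read proportions per bin multiplied by bin number.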

Point of comparison: KRSWMEHVTHWMGQPFNSDDRNTA, protein stability index 3.13. Against it:
- KRSWEEHVVHWMGQPFNSDDRNTA — lower, 2.75
- KRSWEEHVKHWMGQPFNSDDRNTA — higher, 3.59
- KRSWEEHVWHWMGQPFNSDDRNTA — lower, 2.67
- KRSWEEHVPHWMGQPFNSDDRNTA — higher, 3.54
- KRSWEEHVEHWMGQPFNSDDRNTA — higher, 3.84
- KRSWEEHVLHWMGQPFNSDDRNTA — lower, 2.53
- KRSWEEHVMHWMGQPFNSDDRNTA — higher, 3.48
- KRSWEEHVCHWMGQPFNSDDRNTA — lower, 2.6
- KRSWEEHVRHWMGQPFNSDDRNTA — lower, 3.1
- KRSWEEHVAHWMGQPFNSDDRNTA — lower, 2.97
- KRSWEEHVGHWMGQPFNSDDRNTA — higher, 3.14
- KRSWEEHVSHWMGQPFNSDDRNTA — lower, 2.38
- KRSWEEHVHHWMGQPFNSDDRNTA — higher, 3.46
- KRSWEEHVNHWMGQPFNSDDRNTA — higher, 3.75
- KRSWEEHVQHWMGQPFNSDDRNTA — higher, 3.6
- KRSWEEHVFHWMGQPFNSDDRNTA — lower, 2.11
- KRSWEEHVIHWMGQPFNSDDRNTA — lower, 2.62
- KRSWEEHVYHWMGQPFNSDDRNTA — lower, 3.04
- KRSWEEHVDHWMGQPFNSDDRNTA — higher, 4.32
- KRSWEEHVTHWMGYPFNSDDRNTA — lower, 2.6
- KRSWEEHVTHWMGKPFNSDDRNTA — lower, 2.82
- KRSWEEHVTHWMGWPFNSDDRNTA — lower, 2.03
- KRSWEEHVTHWMGPPFNSDDRNTA — lower, 2.84
- KRSWEEHVTHWMGGPFNSDDRNTA — lower, 2.29
- KRSWEEHVTHWMGFPFNSDDRNTA — lower, 2.65
- KRSWEEHVTHWMGMPFNSDDRNTA — lower, 2.34
- KRSWEEHVTHWMGSPFNSDDRNTA — lower, 2.37
- KRSWEEHVTHWMGEPFNSDDRNTA — lower, 1.71
- KRSWEEHVTHWMGVPFNSDDRNTA — higher, 3.15
- KRSWEEHVTHWMGTPFNSDDRNTA — lower, 2.31
- KRSWEEHVTHWMGAPFNSDDRNTA — higher, 3.23
- KRSWEEHVTHWMGNPFNSDDRNTA — lower, 2.75
- KRSWEEHVTHWMGHPFNSDDRNTA — lower, 2.36
- KRSWEEHVTHWMGCPFNSDDRNTA — lower, 3.01
- KRSWEEHVTHWMGDPFNSDDRNTA — lower, 2.69
- KRSWEEHVTHWMGIPFNSDDRNTA — lower, 2.44
- KRSWEEHVTHWMGLPFNSDDRNTA — lower, 2.64
- KRSWEEHVTHWMGRPFNSDDRNTA — higher, 3.47
- KRSWETHVTHWMGQPFNSDDRNTA — higher, 3.15
- KRSWEKHVTHWMGQPFNSDDRNTA — higher, 3.32
- KRSWEIHVTHWMGQPFNSDDRNTA — lower, 2.44
- KRSWEPHVTHWMGQPFNSDDRNTA — higher, 3.46
- KRSWELHVTHWMGQPFNSDDRNTA — lower, 2.58
- KRSWEWHVTHWMGQPFNSDDRNTA — lower, 2.67
- KRSWEQHVTHWMGQPFNSDDRNTA — higher, 3.27
- KRSWEDHVTHWMGQPFNSDDRNTA — lower, 3.06
- KRSWEHHVTHWMGQPFNSDDRNTA — higher, 3.36
- KRSWESHVTHWMGQPFNSDDRNTA — higher, 3.24
- KRSWEFHVTHWMGQPFNSDDRNTA — lower, 2.27
- KRSWEGHVTHWMGQPFNSDDRNTA — higher, 3.48
- KRSWENHVTHWMGQPFNSDDRNTA — higher, 3.98
- KRSWEAHVTHWMGQPFNSDDRNTA — lower, 2.72
- KRSWEMHVTHWMGQPFNSDDRNTA — lower, 2.66
- KRSWERHVTHWMGQPFNSDDRNTA — higher, 3.46
- KRSWEVHVTHWMGQPFNSDDRNTA — lower, 2.53
- KRSWECHVTHWMGQPFNSDDRNTA — lower, 2.87
- KRSWEYHVTHWMGQPFNSDDRNTA — lower, 2.31
- KRSWYEHVTHWMGQPFNSDDRNTA — lower, 3.04
- KRSWTEHVTHWMGQPFNSDDRNTA — lower, 2.4
- KRSWVEHVTHWMGQPFNSDDRNTA — lower, 2.65
- KRSWQEHVTHWMGQPFNSDDRNTA — lower, 3.1
- KRSWLEHVTHWMGQPFNSDDRNTA — lower, 2.47
- KRSWWEHVTHWMGQPFNSDDRNTA — higher, 3.37
- KRSWPEHVTHWMGQPFNSDDRNTA — higher, 3.95
- KRSWKEHVTHWMGQPFNSDDRNTA — lower, 2.58
- KRSWREHVTHWMGQPFNSDDRNTA — lower, 2.64
- KRSWSEHVTHWMGQPFNSDDRNTA — higher, 3.41
- KRSWNEHVTHWMGQPFNSDDRNTA — higher, 3.5
- KRSWEEHVTHWMNQPFNSDDRNTA — lower, 2.14
- KRSWEEHVTHWMEQPFNSDDRNTA — lower, 2.61
- KRSWEEHVTHWMTQPFNSDDRNTA — lower, 2.18
- KRSWEEHVTHWMLQPFNSDDRNTA — lower, 2.73
- KRSWEEHVTHWMDQPFNSDDRNTA — lower, 2.19
- KRSWEEHVTHWMPQPFNSDDRNTA — lower, 2.88
- KRSWEEHVTHWMYQPFNSDDRNTA — lower, 2.08
- KRSWEEHVTHWMMQPFNSDDRNTA — lower, 2.44
- KRSWEEHVTHWMIQPFNSDDRNTA — lower, 2.25
- KRSWEEHVTHWMKQPFNSDDRNTA — lower, 2.13
- KRSWEEHVTHWMFQPFNSDDRNTA — lower, 1.82
- KRSWEEHVTHWMHQPFNSDDRNTA — lower, 2.56
- KRSWEEHVTHWMSQPFNSDDRNTA — lower, 2.63
- KRSWEEHVTHWMVQPFNSDDRNTA — lower, 3.04
- KRSWEEHVTHWMWQPFNSDDRNTA — lower, 1.95
- KRSWEEHVTHWMRQPFNSDDRNTA — lower, 2.23
- KRSWEEHVTHWMAQPFNSDDRNTA — lower, 2.53
- KRSWEEHVTHWMQQPFNSDDRNTA — lower, 2.44
- KRSWEEHVTHWMCQPFNSDDRNTA — lower, 2.1
- KRSWEEHVTHWMGQDFNSDDRNTA — lower, 1.63
- KRSWEEHVTHWMGQFFNSDDRNTA — lower, 2.78
- KRSWEEHVTHWMGQCFNSDDRNTA — lower, 2.35
- KRSWEEHVTHWMGQEFNSDDRNTA — higher, 3.45
- KRSWEEHVTHWMGQAFNSDDRNTA — lower, 2.95
- KRSWEEHTTHWMGQPFNSDDRNTA — higher, 3.84
